Data set [1] has as its system 4T1 cells. The experiment in a line: cytotoxicity, CCK-8 assay. Type of data set: cell-based. As to conditions: 4T1, HUVEC and H9C2 cells, 24 h treatment. As for the experimental part:
(§1) The cytotoxicity of PD-NPs was assessed by cell counting kit-8 (CCK-8) assays. First, 1 x 10^4 4T1, HUVEC, H9C2, BMDMs, BMDCs or CD8^+ T cells were seeded in 96-well cell culture plates. After 24 h of stabilization, the PD-NPs or free DOX were treated with each cell for 24 h. Then, the cells were further incubated with culture medium containing CCK-8 solution (10%) for 20 min, and cell viability was measured by a microplate reader with 450 nm of wavelength (VERSAmaxTM; Molecular Devices Corp., USA).
(In general: Formazan colour is commonly taken as a measure of viable cells.)

Data set [2] concerns PD-L1 in IFN-γ-treated 4T1 cells. The data set is described as follows: PD-L1 expression by western blot. As to conditions: 4T1 cells pre-treated with IFN-γ 20 ng/mL 24 h, then 2 μM for 24 h. Type of data set: cell-based. As for the experimental part: PD-L1 expression in 4T1 cells after different treatment was analyzed via western blot. Briefly, 1 × 10^6 4T1 cells were seeded in 6-well cell culture plates with RPMI medium containing 10% FBS and 1% antibiotics. After 24 h of stabilization, the cells were pre-treated with IFN-γ (20 ng/mL) for 24 h and further incubated with equal molar dose (2 μM) of free DOX, PD-NPs, anti-PD-L1 antibody or anti-PD-L1 peptide ([…]) for 24 h. Then, each cell was solubilized with lysis buffer containing 1% protease inhibitors, and the lysates were centrifuged at 10,000 rpm for 15 min to remove cell debris. Proteins in lysates were quantified via BCA protein quantification kit (Thermo Fisher scientific, USA), and then separated by sodium dodecyl sulfate-polyacrylamide (SDS-PAGE) gel electrophoresis and transferred onto polyvinylidene difluoride (PVDF) membranes. Membranes were incubated with TBS-T containing 5% bovine serum albumin (BSA) for 50 min to block non-specific IgG binding and incubated with anti-mouse PD-L1 primary antibody ([…]) for 12 h at 4 °C. Then, membranes were further incubated with HRP-conjugated anti-rabbit IgG antibody for 90 min at room temperature. Finally, immunoreactive bands were observed via enhanced chemiluminescence (ECL) system.
On the technique in general: A western blot detects proteins with antibodies after separation by electrophoresis.

For data set [3], the system named is 4T1 tumor-bearing mice. The experiment in a line: in vivo tumor inhibition. Further details: species or system mouse. To be noted: once every three days; DOX or PD-NPs i.v. 3 mg/kg based on DOX contents, antibody i.p. 10 mg/kg; saline 1655.9 ± 319.94. How it is done: (§2) 4T1 tumor-bearing mice were randomly divided into four groups: (i) saline; (ii) free DOX; (iii) free DOX with anti-PD-L1 antibody; and (iv) PD-NPs. Then, mice were treated once every three days, with free DOX or PD-NPs (3 mg/kg based on DOX contents), at which time tumor volumes had reached 60 - 80 mm^3. The anti-PD-L1 antibody (10 mg/kg) was i.p. injected simultaneously with free DOX into mice. Antitumor efficacy was assessed by measuring tumor volumes, calculated as largest diameter x smallest diameter^2 x 0.53, every 2 days. For the analysis of antitumor immune responses, tumor tissues were collected on day 7, and single cells were isolated from tumor tissues using a Tumor Dissociation Kit. Following cell counting, the single cells were incubated with FcBlock at 37 °C for 5 min to avoid non-specific antibody binding. Then, multi-parameter staining was performed for 40 min to assess the following populations in tumor tissues; (i) PD-L1^+ cancer cells (CD45^-PD-L1^+); (ii) CRT^+ cancer cells (CD45^-CRT^+); (iii) CD8^+ T cells (CD45^+CD3^+CD8^+); and (iv) regulatory T cells (Tregs; CD45^+CD3^+CD4^+CD25^+). In order to assay the concentration of cytokines in the tumor microenvironment, the IFN-γ and TNF-α in the tumor supernatants were assessed using commercialized ELISA assay kits (Catalog # SMIF00 and SMTA00B, respectively, R&D systems).

Data set [4] deals with 4T1 tumor-bearing mice. The data set is described as follows: toxicity study (body weight, blood analyses). Type of data set: in vivo, mouse. To be noted: for blood analyses, hematological parameters (AST, ALT, BUN, CK, WBC, NEUT, LYMP): blood collected on day 16, treated once every three days; for body weights during treatment: treated once every three days. How it is done:
The in vivo toxicity of PD-NPs was assessed by hematological analyses. Briefly, free DOX or PD-NPs (3 mg/kg based on DOX contents) were intravenously injected once every three days, and anti-PD-L1 antibody (10 mg/kg) was simultaneously i.p. injected into mice. Then, blood samples were collected from mice on day 16. For complete blood counts (CBCs), each blood sample was mixed with EDTA and a portion of each blood sample was centrifuged at 1,000 xg for 20 min, and then supernatants were stored at 4 °C. The following factors in blood samples were measured; aspartate transaminase (AST), alanine aminotransferase (ALT), blood urea nitrogen (BUN), creatinine kinase-MB (CK-MB), white blood cell (WBC), neutrophil (NEUT) and lymphocytes (LYMP).

Data set [5] concerns 4T1 tumor-bearing mice. The data set is described as follows: survival analysis. Type of data set: in vivo, mouse. To be noted: treated once every three days; saline group 18 days. As for the experimental part:
as §2, with “Then, multi-parameter staining was performed for 40 min to assess the following populations in tumor tissues; (i) PD-L1^+ cancer cells (CD45^-PD-L1^+); (ii) CRT^+ cancer cells (CD45^-CRT^+); (iii) CD8^+ T cells (CD45^+CD3^+CD8^+); and (iv) regulatory T cells (Tregs; CD45^+CD3^+CD4^+CD25^+).” left out
The statistical significance between two groups was analyzed using Student's t-test. One-way analysis of variance (ANOVA) was performed for comparisons of more than two groups, and multiple comparisons were analyzed using Tukey-Kramer post-hoc test. Survival data was plotted as Kaplan-Meier curves and analyzed using log-rank test. […]

For data set [6], the target named is T1, cathepsin B (Homo sapiens, UniProt P07858).
T1 construct: purchased R&D systems
The experiment in a line: enzyme cleavage assay, HPLC. Type of data set: in vitro ADME. As for the experimental part:
The purity and molecular weight were analyzed using HPLC and matrix-assisted laser desorption/ionization time of flight mass spectrometer (MALDI-TOF, AB Sciex TOF/TOF 5800 System, USA) with cyano-4-hydroycinnamic acid (CHCA) matrix, respectively. The average size of PD-NPs in saline (1 mg/mL) was determined via dynamic light scattering (DLS; Zetasizer Nano ZS Malvern Instruments, UK). The morphology of nanoparticles in distilled water (1 mg/mL) was observed by transmission electron microscope (TEM; CM-200, USA). As a control, the cathepsin B-cleaved PD-NPs were also observed using TEM, wherein PD-NPs (1mg/mL) were pre-incubated with cathepsin B (10 μg) at 37 °C for 24 h. Enzyme cleavage assays were performed by incubating PD-NPs (10 μM) with cathepsin B, cathepsin D, cathepsin E, caspase-3 and caspase-9 (10 μg) in MES buffer (0.1 M, pH 5.5). As a control experiment, PD-NPs (10 μM) were also pre-incubated with irreversible cathepsin B inhibitor (Z-FA-FMK; 50 μΜ) in MES buffer and then further incubated with cathepsin B. Enzyme reaction buffer was analyzed by HPLC using an acetonitrile: H2O gradient from 20:80 (0 min) to 80:20 (20 min). In vitro drug release from the PD-NPs was further investigated under both physiological and enzymatic conditions. For these analyses, PD-NPs dispersed in the mouse serum (1 mg/mL) were loaded in membrane (Molecular weight cut off: 2000 Da; Dialysis membrane Spectra/Por® 7 MWCO 2000, 18 mm; Carl Roth, Karlsruhe, Germany) in the presence or absence of cathepsin B enzyme (10 μg). After incubation, peptide-DOX or free DOX released to the outer membrane was analyzed using HPLC. Fluorescence profiles of PD-NPs (10 μM) in saline was analyzed by fluorescence spectrophotometer (F-7000, Hitachi).

Data set [7] relates to macrophages. Type of data set: cell-based, mouse. As for the experimental part: (§3) 4T1 ([…]), HUVEC (human umbilical vein endothelial cells) and H9C2 (rat BDIX heart myoblasts) cells were maintained in RPMI-1640, Endothelial cell growth medium (EGM) or Dulbecco's Modified Eagle Medium (DMEM) supplemented with 10% (v/v) fetal bovine serum (FBS), 1% streptomycin and 100 U/mL penicillin, respectively. Bone marrow-derived macrophages (BMDMs) and bone marrow-derived dendritic cells (BMDCs) were prepared by isolating bone marrow cells from BALB/c mice. Then, bone marrow cells were differentiated into BMDMs by incubating with M-CSF (Macrophage colony-stimulating factor, 20 ng/mL) for 7 days, or were differentiated into BMDCs by culturing for 7 days in the presence of GM-CSF (20 ng/mL), IL4 (20 ng/mL) and 0.1% β-mercaptoethanol. After isolation, BMDMs and BMDCs were maintained in RPMI-1640 medium supplemented with 10% (v/v) FBS, 1% streptomycin, and 100 U/mL penicillin.
(§4) The cytotoxicity of PD-NPs was assessed by cell counting kit-8 (CCK-8) assays. First, 1 x 10^4 4T1, HUVEC, H9C2, BMDMs, BMDCs or CD8^+ T cells were seeded in 96-well cell culture plates. […] Then, the cells were further incubated with culture medium containing CCK-8 solution (10%) for 20 min, and cell viability was measured by a microplate reader with 450 nm of wavelength (VERSAmaxTM; Molecular Devices Corp., USA).

Data set [8] has as its system 4T1 tumor-bearing mice. The experiment in a line: biodistribution by NIRF imaging. To be noted: 24 h after injection, 3 mg/kg based on DOX contents. Type of data set: in vivo, mouse. As for the experimental part: The 6-week female BALB/c mice were purchased from NaraBio (Gyeonggi-do, Republic of Korea). Mice were bred under pathogen-free conditions in the Korea Institute of Science and Technology (KIST). All experiments with animals were performed in compliance with the relevant laws and institutional guidelines of Institutional Animal Care and Use Committee (IACUC; approved number of 2020-123) in Korea Institute of Science and Technology (KIST). The in vivo biodistribution of PD-NPs was assessed in 4T1 tumor-bearing mice, which were prepared by subcutaneous inoculation of 1 x 10^7 4T1 cells. […] Noninvasive near-infrared fluorescence (NIRF) imaging was performed using an IVIS Lumina Series III system (PerkinElmer; Waltham, MA, USA) after 1, 6 and 24 h of injection. Fluorescence intensity in tumor regions was quantified using a Living Image software (PerkinElmer; Waltham, MA, USA). For ex vivo fluorescence imaging, mice were sacrificed after 24 h of injection, followed by extraction of liver, lung, spleen, kidney, heart and tumor tissues. Fluorescence intensity in tissues was analyzed using an IVIS Lumina Series III system. […] Slide-mounted tumor sections were stained with APC fluorescent dye-conjugated CD31 or PD-L1 antibody at 4 °C for 12 h, after which tumor tissues were analyzed using a Leica TCS SP8 confocal laser-scanning microscope.

Data set [9] relates to T lymphocytes. The data set is described as follows: cytotoxicity against immune cells, CCK-8 assay. The class given is cell-based, mouse. As to conditions: 24 h treatment, P < 0.001. How it is done: as §1
The test system of data set [10] is DCs. The experiment in a line: cytotoxicity against immune cells, CCK-8 assay. Type of data set: cell-based, mouse. As to conditions: 24 h treatment, P < 0.001. As for the experimental part: as §3, §4

This is an account of results in PMC8899589, “Anti-PD-L1 peptide-conjugated prodrug nanoparticles for targeted cancer immunotherapy combining PD-L1 blockade with immunogenic cell death” (Theranostics, 2022).

Residues, ends and D or L forms follow the SMILES beside them. *: point of attachment. Doxorubicin(3'-N) = COc1cccc2c1C(=O)c1c(O)c3c(c(O)c1C2=O)C[C@@](O)(C(=O)CO)C[C@@H]3O[C@H]1C[C@H](N*)[C@H](O)[C@H](C)O1

Consider `COc1cccc2c1C(=O)c1c(O)c3c(c(O)c1C2=O)C[C@@](O)(C(=O)CO)C[C@@H]3O[C@H]1C[C@H](N)[C@H](O)[C@H](C)O1.Cl` [free DOX, Doxorubicin hydrochloride], for which, in data set [1], the “cytotoxicity in three types of cells” value is on record as “indiscriminate cytotoxicity with similar IC50”. Also, the PD-L1 expression result in data set [2] is reported as “further increased”. The “tumor volume on day 16” value in data set [3] is listed as 1028.73 ± 218.15 mm^3. Moreover, in [4], the “blood analyses, hematological parameters (AST, ALT, BUN, CK, WBC, NEUT, LYMP)” value was “severe cardiac, renal and hepatic toxicity”; the “body weights during treatment” value is “severe body weight loss”. Also, the median survival in data set [5] is given as 20 days.
As for `COc1cccc2c1C(=O)c1c(O)c3c(c(O)c1C2=O)C[C@@](O)(C(=O)CO)C[C@@H]3O[C@H]1C[C@H](NC(=O)CNC(=O)[C@H](CCCNC(=N)N)NC(=O)CNC(=O)[C@H](Cc2ccccc2)NC(=O)[C@H](CCCNC(=N)N)NC(=O)[C@@H](NC(=O)[C@H](CCCNC(=N)N)NC(=O)[C@H](C)NC(=O)[C@H](CCCNC(=N)N)NC(=O)[C@@H](NC(=O)[C@H](CS)NC(C)=O)C(C)C)[C@@H](C)O)[C@H](O)[C@H](C)O1` [CVRARTR-FGRG-DOX] (Ac-CVRARTRFGRG-{Doxorubicin(3'-N)}), the “cleavage by cathepsin B” value in data set [6] (cathepsin B 10 μg, pH 5.5 MES buffer, 0, 6, 12 and 24 h, HPLC) was “not cleaved”.
In the case of `COc1cccc2c1C(=O)c1c(O)c3c(c(O)c1C2=O)C[C@@](O)(C(=O)CO)C[C@@H]3O[C@H]1C[C@H](NC(=O)CNC(=O)[C@H](CCCNC(=N)N)NC(=O)[C@H](CCCNC(=N)N)NC(=O)[C@H](Cc2ccccc2)NC(=O)[C@H](CCCNC(=N)N)NC(=O)[C@@H](NC(=O)[C@H](CCCNC(=N)N)NC(=O)[C@H](C)NC(=O)[C@H](CCCNC(=N)N)NC(=O)[C@@H](NC(=O)[C@H](CS)NC(C)=O)C(C)C)[C@@H](C)O)[C@H](O)[C@H](C)O1` [PD-NPs] (Ac-CVRARTRFRRG-{Doxorubicin(3'-N)}), in data set [6] (10 μM, cathepsin B 10 μg, MES buffer 0.1 M pH 5.5, 6 h post-incubation, HPLC), the “cleaved by cathepsin B” value is on record as “approximately 99%”. In addition, the “cleavage in cathepsin B-suppressed condition” value in data set [6] (cathepsin B with irreversible inhibitor Z-FA-FMK 50 μM, MES buffer pH 5.5, HPLC) is “not cleaved”. Further, the “cytotoxicity compared to free DOX” value in data set [7], in data set [9] and in data set [10] was “significantly reduced” throughout. The “accumulation in the liver tissues versus free DOX” value in data set [8] (ex vivo NIRF imaging) is recorded as “significantly higher accumulation”. In addition, the “accumulation at tumor tissues compared to free DOX” value in data set [8] (i.v., NIRF) is 4.01-4.48 times. Besides, the “blood analyses, hematological parameters (AST, ALT, BUN, CK, WBC, NEUT, LYMP)” value in data set [4] is recorded as “in normal range”. The “body weights during treatment” value in data set [4] is “gradually increased”.
